Publication PMC3059804
Read-outs that look alike come from different tables or passages of the source.

Legend:
Test in all cases: enzyme inhibition kinetics
[1] = biological target: human LSD1-CoREST complex (LSD1 residues 171-836 with CoREST residues 308-440) (human) (UniProt O60341)
[2] = biological target: human LSD1-CoREST complex (LSD1 residues 171-836 with CoREST residues 308-440) (human) (UniProt O60341); remark: listed apart in the source
[3] = biological target: recombinant mouse LSD2 (mouse) (UniProt Q8CIG3)
[4] = biological target: human LSD1-CoREST complex (LSD1 residues 171-836 with CoREST residues 308-440) (human) (UniProt O60341); remark: listed apart in the source

Which Ki [1] does the source give for “20-residue peptide corresponding to the N-terminal residues of human SNAIL1” here?
Its Ki is 0.2 µM.

What about the Ki [2] of the same substance?
Its Ki is 220 µM.

What about the Ki [3] of the same substance?
The Ki was 2.22 µM.

What about the Ki [4] of the same substance?
Its Ki is 210 µM.
